From US20180327503A1 (RINAT NEUROSCIENCE, published 2018)
Numbering of substitutions follows the chain as printed.

How the values were obtained:
[1] = biological target: T1, Human IL-7R-hFc antigen (R&D systems) (human, UniProt P16871 21-239); test: SPR (Biacore 2000/3000), IL-7R-hFc captured on anti-human Fc, antibody as analyte
T1 construct: Bought from R&D Systems; not shown: human Fc (hFc) of the bought fusion
T1 sequence (looked up): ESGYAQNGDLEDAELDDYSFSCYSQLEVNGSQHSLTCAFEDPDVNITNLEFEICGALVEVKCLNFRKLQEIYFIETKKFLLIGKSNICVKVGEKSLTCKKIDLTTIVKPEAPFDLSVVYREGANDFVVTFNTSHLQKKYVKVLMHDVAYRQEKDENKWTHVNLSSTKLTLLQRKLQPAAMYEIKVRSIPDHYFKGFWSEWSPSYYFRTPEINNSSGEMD
Protocol: The affinities of antagonist IL-7R antibodies to human IL-7R were measured on a surface plasmon resonance Biacore™ 2000 or 3000 biosensor equipped with a research-grade CM5 sensor chip (Biacore™ AB, Uppsala, Sweden—now GE Healthcare). Goat polyclonal anti-human F(ab′)2 fragments (Fc specific) were amine-coupled at saturating levels onto all four flow cells using a standard N-hydroxysuccinimide/ethyldimethylaminopropyl carbodiimide (NHS/EDC) chemistry in HBS-P running buffer (from Biacore™). The buffer was switched to HBS-P containing 1 mg/mL BSA. Human IL-7R-hFc antigen (R&D systems, Minneapolis, USA) was diluted to about 30 μg/mL and captured for 3 min at 5 μL/min to give levels of about 500-1000 RU per flow cell, leaving one blank to serve as a reference channel. Fab, hIgG1, or hIgG2ΔA formats of the antibodies were injected in duplicates as a 5-membered 3-fold series starting at 2 μM and a 5-membered 4-fold series starting at 0.4 μM for 3 min at 20-50 μL/min. Dissociation was monitored for 5 min. The capture chip was regenerated after the last injection of each titration with two 30 sec pulses of 75 mM phosphoric acid or 10 mM Glycine-HCl pH 1.7. Buffer cycles provided blanks for double-referencing the binding response data, which were then fit globally to a simple reversible binding model using Biaevaluation software v.4.1 to deduce the kinetic association and dissociation rate constants, respectively kₐ and kd. Affinities were deduced from their ratio (KD=kd/kₐ).

[2] = biological target: T2, human IL-7R on human peripheral blood mononuclear cells (CD4+ gated) (human, UniProt P16871 21-459); test: cell-based or functional assay
T2 sequence (looked up): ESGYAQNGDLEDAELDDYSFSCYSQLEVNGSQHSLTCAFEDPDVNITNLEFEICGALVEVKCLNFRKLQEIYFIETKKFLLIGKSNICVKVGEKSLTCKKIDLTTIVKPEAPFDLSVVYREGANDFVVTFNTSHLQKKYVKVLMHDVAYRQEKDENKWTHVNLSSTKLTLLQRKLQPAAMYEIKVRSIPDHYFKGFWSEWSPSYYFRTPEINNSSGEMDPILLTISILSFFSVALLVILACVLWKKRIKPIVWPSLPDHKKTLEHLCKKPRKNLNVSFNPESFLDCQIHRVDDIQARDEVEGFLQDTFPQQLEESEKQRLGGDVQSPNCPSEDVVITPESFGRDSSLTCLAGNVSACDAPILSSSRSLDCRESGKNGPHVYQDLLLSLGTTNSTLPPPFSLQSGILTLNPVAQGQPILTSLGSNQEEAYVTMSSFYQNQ

B1: C1GM (hIgG1) (antibody)
heavy: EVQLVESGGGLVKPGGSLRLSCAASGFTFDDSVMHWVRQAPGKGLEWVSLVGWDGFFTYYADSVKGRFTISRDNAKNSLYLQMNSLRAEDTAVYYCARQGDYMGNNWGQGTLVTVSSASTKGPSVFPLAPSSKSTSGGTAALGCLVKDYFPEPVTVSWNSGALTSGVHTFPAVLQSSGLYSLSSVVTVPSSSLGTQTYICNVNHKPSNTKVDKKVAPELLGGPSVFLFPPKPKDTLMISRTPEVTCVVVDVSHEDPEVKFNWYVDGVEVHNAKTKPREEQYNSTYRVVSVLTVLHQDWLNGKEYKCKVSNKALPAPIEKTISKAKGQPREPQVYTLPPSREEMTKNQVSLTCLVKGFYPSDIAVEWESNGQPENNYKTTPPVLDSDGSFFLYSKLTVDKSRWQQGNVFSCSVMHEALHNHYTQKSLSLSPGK
light: NFMLTQPHSVSESPGKTVTISCTRSSGSIDSSYVQWYQQRPGSSPTTVIYEDDQRPSGVPDRFSGSIDSSSNSASLTISGLKTEDEADYYCQSYDFHHLVFGGGTKLTVLQPKAAPSVTLFPPSSEELQANKATLVCLISDFYPGAVTVAWKADSSPVKAGVETTTPSKQSNNKYAASSYLSLTPEQWKSHRSYSCQVTHEGSTVEKTVAPTECS
[1]
  Kd: 0.286 nM
  koff: 0.000405 s⁻¹
  kon: 1.42e+06 M⁻¹ s⁻¹

B2: C1GM-2 (hIgG2ΔA) (antibody)
heavy: EVQLVESGGGLVKPGGSLRLSCAASGFTFDDSVMHWVRQAPGKGLEWVSLVGWDGFFTYYADSVKGRFTISRDNAKNSLYLQMNSLRAEDTAVYYCARQGDYMGNNWGQGTLVTVSSASTKGPSVFPLAPCSRSTSESTAALGCLVKDYFPEPVTVSWNSGALTSGVHTFPAVLQSSGLYSLSSVVTVPSSNFGTQTYTCNVDHKPSNTKVDKTVAPPVAGPSVFLFPPKPKDTLMISRTPEVTCVVVDVSHEDPEVQFNWYVDGVEVHNAKTKPREEQFNSTFRVVSVLTVVHQDWLNGKEYKCKVSNKGLPSSIEKTISKTKGQPREPQVYTLPPSREEMTKNQVSLTCLVKGFYPSDIAVEWESNGQPENNYKTTPPMLDSDGSFFLYSKLTVDKSRWQQGNVFSCSVMHEALHNHYTQKSLSLSPGK
light: B1 light
notes: the footnote is printed with **)
[1]
  Kd: 0.27 nM
  koff: 0.000407 s⁻¹
  kon: 1.51e+06 M⁻¹ s⁻¹

B3: P2D2 (antagonist IL-7R fully human monoclonal antibody, format not stated) (antibody, V domains shown)
VH: QVNLRESGGGLVKPGGSLRLSCAASGFTFDDSVMHWVRQAPGKGLEWLSLVGWDGFFTYYADSVKGRFTISRDNTKNLLYLQMNSLRAEDTAVYYCARQGDYVFNNWGQGTLVTVSS
VL: NFMLTQPHSVSGSPGKTVTISCTRSSGSIDSSYVQWYQQRPGNSPTTVIYEDDQRPSGVPDRFSGSIDSSSNSASLTISGLVTEDEADYYCMQYDSSHLVFGGGTKLTVLC
[2]
  IC50 (read off the curve): ~0.1 µg/mL

B4: P2E11 (antagonist IL-7R fully human monoclonal antibody, format not stated) (antibody, V domains shown)
VH: B3 VH with V103M, F104G, N105D, N106Y
VL: B3 VL with M92Q, Q93S, S96F, S97H
[2]
  IC50 (read off the curve): ~0.04 µg/mL

B5: HAL403a Fab (Fab, V domains shown)
VH: B3 VH with V103M, F104G
VL: B3 VL with M92Q, Q93S, S96F, S97H
[1]
  Kd: 0.06 nM
  koff: 0.000286 s⁻¹
  kon: 5.07e+06 M⁻¹ s⁻¹

B6: C2M3 (hIgG2ΔA) (antibody, V domains shown)
VH: B3 VH with Q1E, N3Q, R5V, L48V, T75A, L78S, V103M, F104G
VL: NFMLTQPHSVSESPGKTVTISCTRSSGSIDSSYVQWYQQRPGSSPTTVIYEDDQRPSGVPDRFSGSIDSSSNSASLTISGLKTEDEADYYCMQYDFHHLVFGGGTKLTVL
notes: the footnote is printed with **); Only variable domains are tied to C2M3
[1]
  Kd: 0.195 nM
  koff: 0.000302 s⁻¹
  kon: 1.55e+06 M⁻¹ s⁻¹

B7: C2M3 (hIgG1) (antibody, V domains shown)
VH: B3 VH with Q1E, N3Q, R5V, L48V, T75A, L78S, V103M, F104G
VL: B6 VL
notes: Only variable domains are tied to C2M3
[1]
  Kd: 0.218 nM
  koff: 0.000307 s⁻¹
  kon: 1.41e+06 M⁻¹ s⁻¹

B8: P2E11 Fab (Fab, V domains shown)
VH: B3 VH with V103M, F104G, N105D, N106Y
VL: B3 VL with M92Q, Q93S, S96F, S97H
[1]
  Kd: 3 nM
  koff: 0.000497 s⁻¹
  kon: 155000 M⁻¹ s⁻¹

B9: C1GM Fab (Fab, V domains shown)
VH: B3 VH with Q1E, N3Q, R5V, L48V, T75A, L78S, V103M, F104G
VL: B6 VL with M92Q, Q93S
[1]
  Kd: 0.04 nM
  koff: 0.000171 s⁻¹
  kon: 4.85e+06 M⁻¹ s⁻¹

B10: P3A9 Fab (Fab, V domains shown)
VH: B3 VH with F56S, F57A, N105D, N106Y
VL: B3 VL with M92Q, Q93S
[1]
  Kd: 204 nM
  koff: 0.0114 s⁻¹
  kon: 56000 M⁻¹ s⁻¹

B11: HAL403b Fab (Fab, V domains shown)
VH: B3 VH with V103M, F104G
VL: B3 VL with S96F, S97H
[1]
  Kd: 0.06 nM
  koff: 8.08e-05 s⁻¹
  kon: 1.39e+06 M⁻¹ s⁻¹

B12: P2D2 Fab (Fab, V domains shown)
VH: B3 VH
VL: B3 VL
[1]
  Kd: 12 nM
  koff: 0.000882 s⁻¹
  kon: 71700 M⁻¹ s⁻¹

B13: P4B3 Fab (Fab, V domains shown)
VH: QVTLKESGGGLVQPGGSLRLSCAASGFTFSNYGMHWVRQAPGKGLEWVSAISGSGGSTYYADSVKGRFTISRDNSKNTVYLQMNSLRDEDTAVYYCARDISGGGMDVWGQGTTVTVSS
VL: NFMLTQPHSVSESPGKTVTISCTGSSGRIASSYVQWYQQRPGSAPTTVIYEDNQRPSGVPDRFSGSIDSSSNSASLTISGLKTEDEADYYCQSYASSSLWVFGGGTQLTVLS
[1]
  Kd: 225 nM
  koff: 0.00351 s⁻¹
  kon: 15600 M⁻¹ s⁻¹
